Legend:
[1] = biological target: T1, GST-tagged mouse DISC1 fragment 1-220aa (UniProt Q811T9)
T1 sequence: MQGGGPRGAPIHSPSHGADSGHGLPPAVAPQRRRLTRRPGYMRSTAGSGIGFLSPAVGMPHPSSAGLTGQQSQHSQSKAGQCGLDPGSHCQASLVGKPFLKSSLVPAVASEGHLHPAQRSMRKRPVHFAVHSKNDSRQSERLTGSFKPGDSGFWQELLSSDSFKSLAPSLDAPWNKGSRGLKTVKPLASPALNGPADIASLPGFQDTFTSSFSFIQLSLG

[2] = biological target: T2, GST-tagged mouse DISC1 fragment 596-852aa (UniProt Q811T9)
T2 sequence: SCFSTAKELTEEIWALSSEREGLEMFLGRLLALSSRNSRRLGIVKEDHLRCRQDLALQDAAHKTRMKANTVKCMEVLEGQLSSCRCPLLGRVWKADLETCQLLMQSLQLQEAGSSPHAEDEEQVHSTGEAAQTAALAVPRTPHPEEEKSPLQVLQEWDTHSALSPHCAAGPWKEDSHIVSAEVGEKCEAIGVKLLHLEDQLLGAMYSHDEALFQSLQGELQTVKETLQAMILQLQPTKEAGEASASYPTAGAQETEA

[3] = biological target: T3, GST-tagged mouse DISC1 fragment 356-595aa (UniProt Q811T9)
T3 sequence: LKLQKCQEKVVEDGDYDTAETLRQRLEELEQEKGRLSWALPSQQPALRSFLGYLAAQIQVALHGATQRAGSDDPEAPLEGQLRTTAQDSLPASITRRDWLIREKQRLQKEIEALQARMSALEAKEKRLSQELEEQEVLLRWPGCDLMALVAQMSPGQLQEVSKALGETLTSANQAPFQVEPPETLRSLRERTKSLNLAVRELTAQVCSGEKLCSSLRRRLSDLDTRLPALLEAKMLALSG

[4] = biological target: T4, GST-tagged mouse DISC1 fragment 221-355aa (UniProt Q811T9)
T4 sequence: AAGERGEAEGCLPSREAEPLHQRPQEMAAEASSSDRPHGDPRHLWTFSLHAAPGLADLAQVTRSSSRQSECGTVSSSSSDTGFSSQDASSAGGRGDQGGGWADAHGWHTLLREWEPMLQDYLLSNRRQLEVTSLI

GST-GSK3β (recombinant, Active Motif)
GSK3β Y216 phosphorylation, dose response in vitro [1]: no inhibition of GSK3β Y216 phosphorylation was observed at 0.1 µM and the inhibition of phosphorylation plateaued at 1 µM | in vitro kinase assay: GST-β-catenin phosphorylation, GST-axin phosphorylation and GSK3β autophosphorylation at Y216 [1]: potently inhibited β-catenin, axin and GSK3β phosphorylation at 0.5 µM | in vitro kinase assay: GST-β-catenin phosphorylation, GST-axin phosphorylation and GSK3β autophosphorylation at Y216 [2]: none of the other 3 DISC1 fragments, GST-p25, or GST-CASK proteins inhibited GSK3β activity at this concentration (0.5 µM) | GSK3β autophosphorylation (Y216), in vitro kinase assay [3]: at higher concentrations (2 µM), DISC1 fragments spanning 221-355 and 356-595 started to inhibit GSK3β autophosphorylation | in vitro kinase assay: GST-β-catenin phosphorylation, GST-axin phosphorylation and GSK3β autophosphorylation at Y216 [3]: none of the other 3 DISC1 fragments, GST-p25, or GST-CASK proteins inhibited GSK3β activity at this concentration (0.5 µM) | GSK3β autophosphorylation (Y216), in vitro kinase assay [4]: at higher concentrations (2 µM), DISC1 fragments spanning 221-355 and 356-595 started to inhibit GSK3β autophosphorylation | in vitro kinase assay: GST-β-catenin phosphorylation, GST-axin phosphorylation and GSK3β autophosphorylation at Y216 [4]: none of the other 3 DISC1 fragments, GST-p25, or GST-CASK proteins inhibited GSK3β activity at this concentration (0.5 µM)
